Assay: soluble on expression in E. coli; label from the status in PepcDB or PDB records

Row | Sequence | soluble on expression in E. coli
1 | MGSDKIHHHHHHMAAFTTTDGLRLFYEDEGTGQPLLCLAGLTRCSRDFEFLRPHVTDLRLIRLDYRGRGQSDYDPDYRNYNVLREAHDVIELLDHLGLDRVTVLGTSRGGMIAMALAASHPDRLAGVILNDVGPVIEPAGIARIMDYVGKKPVSKTHDQAALALKQAMEPQFPGVPLSVWRKQAEIQYAASDQGLALRYDDGLHKALLDQAATGAIPDLWLFFEALRDIPTAVLRGANSDILGAGTVAEMHRRHPGLISAEVPDRGHVPFLDEPQSLDLIRRILETA | not soluble
2 | MSLKRLACYIRVSSNKDDQQSSLIQQETLLREKFKQEDLIIYSDTGTGVSFNREGFKRLMYDAGLNICKLNDGRITFEADNIRKPIFDEIVVINTSRFSRNIAIIDILRVLWDYKKINVHFLDNCKNSNNPNDMTVLKMFFSMAENESMETSNRTKRGNEISILDNTIRNNSIFGWDFDREKNYLKINKKEAEIVRFIFKTALTNGLKMTAKIVNEKGYRTKKNRLWSSSTIKTLIVNPKYKGYNVRNKYSNENMFTGVKSKYVKKENWIIQKNNRIEPIVSEELWEEVQRALESRCLHGNREGHHHHHH | soluble
3 | MPNASQVYRSTRSSSPKTISFEEAIIQGLATDGGLFIPPTIPQVDQATLFNDWSKLSFQDLAFAIMRLYIAQEEIPDADLKDLIKRSYSTFRSDEVTPLVQNVTGDKENLHILELFHGPTYAFKDVALQFVGNLFEYFLQRTNANLPEGEKKQITVVGATSGDTGSAAIYGLRGKKDVSVFILYPTGRISPIQEEQMTTVPDENVQTLSVTGTFDNCQDIVKAIFGDKEFNSKHNVGAVNSINWARILAQMTYYFYSFFQATNGKDSKKVKFVVPSGNFGDILAGYFAKKMGLPIEKLAIATNENDILDRFLKSGLYERSDKVAATLSPAMDILISSNFERLLWYLAREYLANGDDLKAGEIVNNWFQELKTNGKFQVDKSIIEGASKDFTSERVSNEETSETIKKIYESSVNPKHYILDPHTAVGVCATERLIAKDNDKSIQYISLSTAHPAKFADAVNNALSGFSNYSFEKDVLPEELKKLSTLKKKLKFIERADVELVKNAIEEELAKMKL | soluble
4 | MSLLARYLNLIGRRSASPYRPQRLPAKFDNVIVAMSSGVDSSVAAALFAGEFPNTRGVYMQNWSESQSLDDPGKEPCYERDWRDVNRVAKHLNIRVDKVNFEQDYWIDVFEPMLRGYSEGSTPNPDIGCNKFVKFGKLREWLDEKYGTGNYWLVTGHYARVMQEMNGKGLFHLLRSIYRPKDQSYYLSQINSTVLSSLLLPIGHLTKPEVRDLAKYAGLPTAEKPDSQGICFVNNSQHGKFKNFLKHYLPSSPGDIITVDPQSGAKTTWGRHDGLWSYTIGQKVGISMPQADPNYQGTWFVSEKLRDTNEILIVRGRDNPALYSDTMRIENFSSLGPREDTINAFQNTGALTLQFRSLQVPVQIKSCKLNRSADNLDITIHLASKQRAITPGQSCCLYIDDRVLGSGPISHVNNNDTHAEGHHHHHH | not soluble
5 | ASSPANKVYQDRFESMYSKIKDPANGYFSEQGIPYHSIETLMVEAPDYGHVTTSQAMSYYMWLEAMHGRFSGDFTGFDKSWSVTEQYLIPTEKDQPNTSMSRYDANKPATYAPEFQDPSKYPSPLDTSQPVGRDPINSQLTSAYGTSMLYGMHWILDVDNWYGFGARADGTSKPSYINTFQRGEQESTWETIPQPCWDEHKFGGQYGFLDLFTKDTGTPAKQFKYTNAPDADARAVQATYWADQWAKEQGKSVSTSVGKATKMGDYLRYSFFDKYFRKIGQPSQAGTGYDAAHYLLSWYYAWGGGIDSTWSWIIGSSHNHFGYQNPFAAWVLSTDANFKPKSSNGASDWAKSLDRQLEFYQWLQSAEGAIAGGATNSWNGRYEAVPSGTSTFYGMGYVENPVYADPGSNTWFGMQVWSMQRVAELYYKTGDARAKKLLDKWAKWINGEIKFNADGTFQIPSTIDWEGQPDTWNPTQGYTGNANLHVKVVNYGTDLGCASSLANTLTYYAAKSGDETSRQNAQKLLDAMWNNYSDSKGISTVEQRGDYHRFLDQEVFVPAGWTGKMPNGDVIKSGVKFIDIRSKYKQDPEWQTMVAALQAGQVPTQRLHRFWAQSEFAVANGVYAILFPD | soluble
6 | MGSDKIHHHHHHMFSLFETFIVVYETKSFTLAGKYLFISQPTVTVRIKKLEEELKSTLFLRGKHQEIIPTEAAILFYPKAIAYLKKWEEDQAEVQKKSLAKHPFKIGVSHSAALSIMPGIFKVFEGELEHLDVEINMYDSEKVFELVANHDLHFGIIERLLISDQTETFPLFLDELVLAGNTDSETFFTRESGSGIGYYIKRYLKSAPSAQRNIVRMNSNEMIISHIKAGLGSSLISKSFLTDDIPYQELGSNYHREFLGVSFDEEKDPMIQKLISKIKKETEIH | not soluble
7 | MIYSMTAYARKEVKGNWGSAVWEIRSVNQRYLETYFRMPEQFRALEPVLRERFRKRLARGKVECSLRFEANPAAKAELSINEALATQVIKAAEQVMHMTGELSRINPFQVMQWPGVMETPEQNMDEVNKELLAAFDEAISEFIEARGREGDNMKALIEQRLDAITAEVVKVRARMPEILEWQRERLFSKFEDAKIELDASRVEQELILLAQKSDVAEELDRLDSHVKETTNILKKGGAVGRRLDFMMQEFNRESNTLASKSISTDITASGVELKVLIEQMREQIQNIE | not soluble
8 | AHHHHHHGSILEKAREILEEHQLCNHCLGRLFGKLGKGTNEERGRAIRLLLSMETGKEYKEPEKCELCGGVFNNLDKFAELCIKAAEGIEFETFWVGSRFPEEIEKKEEEIWRKFRVVSGEKITKEFNRELGKVIAVRYGKTPVKERPDVVFIVEPFSEKVELQVNPIYVAGRYRKLIRGIPQTPAPGFKESIATIICRAFKKHFHGKCIFKGAGREDVDVRMLGNGRPFVVEIKRPRKRKVNLKDIEEEINQSGKVEVLNLRFITPEEAERILTTRHRKVYEAIVYVKDGITKEEVEKVVKSLKNAEIKQRTPRRVLNSRADLVRVRKVYDVKGELIDDKHFKLRLVTDGGLYIKELISGDRGRTTPSVSEILGKEAWCEILDVLEVLDDVEGDN | soluble
9 | MRTLFLELMEQYVVAKNPKLMLRRSETVVERMLSNWMSICLYQYLKDSAGEPLYKLFKAIKHQVEKGPVDAVQKKAKYTLNDTGLLGDDVEYAPLTVSVIVQDEGIDAIPVKVLNCDTISQVKEKIIDQVYRTQPCSCWPKPDSVVLEWRPGSTAQILSDLDLTSQREGRWKRINTLMHYNVRDGATLILSKVGVSQQPEDSQQDLPGERHALLEEENRVWHLVRPTDEVDEGKSKRGSMKEKERTKAITEIYLTRLLSVKGTLQQFVDNFFQSVLAPGHAVPPAVKYFFDFLDEQAEKHDIRDEDTIHIWKTNSLPLRFWVNILKNPHFIFDVHVHEVVDASLSVIAQTFMDACTRTEHKLSRDSPSNKLLYAKEISTYKKMVEDYYKGIRQMVQVSDQDMNTHLAEISRAHTDSLNTLVALHQLYQYTQKYYDEIINALEEDPAAQKMQLAFRLQQIAAALENKVTDL | not soluble
10 | SLTTLTVRVFTTAEIIYRKTVIALVCHLNCSRQETVTMNKTITALAIMMASFAANASVLPETPVPFKSGTGAIDNDTVYIGLGSAGTAWYKLDTQAKDKKWTALAAFPGGPRDQATSAFIDGNLYVFGGIGKNSEGLTQVFNDVHKYNPKTNSWVKLMSHAPMGMAGHVTFVHNGKAYVTGGVNQNIFNGYFEDLNEAGKDSTAIDKINAHYFDKKAEDYFFNKFLLSFDPSTQQWSYAGESPWYGTAGAAVVNKGDKTWLINGEAKPGLRTDAVFELDFTGNNLKWNKLAPVSSPDGVAGGFAGISNDSLIFAGGAGFKGSRENYQNGKNYAHEGLKKSYSTDIHLWHNGKWDKSGELSQGRAYGVSLPWNNSLLIIGGETAGGKAVTDSVLITVKDNKVTVQN | not soluble
11 | MTELLVTPKSLSHMETLIDLGADAFVIGEQKFGLRLPGEFNRQQMTEAVALAHKNDKKVYAAVNGLFHNYHLDAVEDYINFLHEIRVDRIIFGDPAVVMYVKAQENPIPLHWNAETLVTNHFQCNYWGKRGASRAVLARELNLDEIINIKENSNVEIEVQVQGMTCMFQSKRMLLGNYYTFQDRQMKIERRNDEQSLLLYDEERQNNYPVYEDYNGTHIMSPNDICLIEELAPFFEAGIDSFKIDGILQTEEYINVVTEQYRQAIDLYNEDPEIYEDEKFMLMDPIEEIQPDHRPFDEGFLYKQTVY | not soluble
12 | MNIFYEESGQFKIAAIIQKNDATYQVDTPHGKRTKVKANNVFAEFDGDMAAFLENAQAQAADIDTDLLWEVCGEEEFTAEAIAEEYYGHAPTKTELAATLIALYAAPMYFYKKAKGVFKAAPEETLKQALAAIERKKQQDAQIDAWAEALKRGEMPSEIAADLKTILHAPDKQSLTYKAFTKAADALKTSAYELAKKTGGITSIPQYLQDGFEIKYFPKGTGFPDLALPEMPDLPKADVTAFSIDDESTTEVDDALSLTDLDNGTKRVGIHIAAPSLAVKPGDKMEKNIMERLSTVYFPGGKITMLPENWIAAFSLDAGAHRPAVSIYFDVDGEFNVGAPTCKIEAVNIATNLRIQAIEPHFNAETGLDEAGEMMFAHHQDLIWFYQFATALQKARGKYEPDRAPQYDYSIELDEEGKVSVVRRERGSPIDTLVSEMMILANSTWAQMLHDNDLPGLFRVQPTGKVRMSTKSEPHIGMGVQHYGWFTSPLRRAADYINQKQLISLIDDTAEPLYQNSDAELFAALRDFDAAYTAYADFQRQMEAYWSLVYLQQQGTSELTATILKEDLVRIEGLPLVTRATGIPFDALPKSQALFKITELDAEKQFVSLNYIKAVAPAGTTAGNAV | not soluble
13 | MKIIDCRNMACPAPVVTTKRALEEAGGETVQVLVDPGAPRENVIRFAENRGFAVSEVEADNGFALTITSPGSAPVEPVRTVAGKGGKTVMLVASDRLGDGPEELGRLLMKNFIITLLDLAELPDRMLFVNTGVLLTTEGSEVLEALQSLGNRGVEVLSCGVCLDFFHRKEKLVAGSVTNMFTIAESLLGAGSVVRLLEHHHHHH | soluble
14 | MLKINYPIKGACQCGQVTYQLLAAPLMVAACHCRECQKLSTSAFSITAVVNATDVVFSGEMSDWSRLADNGNTNGAKFCPCCGNRIYHFNPNFPDKIKLKPSTLEDTRVIQPTMHIWTSEKQAWFKLPLDLPSHEKQPF | not soluble
15 | GHMNMSQSQEIVLQPRSIVVPGELLAEGEFQIPWSPYILKINSKYYSTVVGLFDVKDTQFEVIPLEGSFYYPKINDIVIGLVEDVEIYGWVVDIKAPYKAYLPASNLLGRSINVGEDLRRYLDVGDYVIARIENFDRSIDPVLSVKGKDLGRVSNGIVIDIMPVKVPRVIGKNKSMYETLTSKSGCSIFVANNGRIWATCPSRFSEEILIEAIRKIENESHIKGLTDRIKQFIEEKLGERNASSGETKTNS | soluble
16 | MYPYIKLIATLFRAKNSPQMNLDEKSVLNCRAGLTDIDVFVELNNARHLTYMEFGRWDFAQRTGLLSLMRKNKWAFAVGGASVRYRRRIAFWKKFTVTTQVICHDGRWFYFLQETHIKDKVCSSALIKAAFTSKQGLVPATEVLAAYGKTTPNFDVPDWVNAWIDAESQRPWPLEHHHHHH | soluble
17 | AESTLGAAAAQSGRYFGTAIASGKLGDSAYTTIASREFNMVTAENEMKIDATEPQRGQFNFSAGDRVYNWAVQNGKQVRGHTLAWHSQQPGWMQSLSGSTLRQAMIDHINGVMGHYKGKIAQWDVVSHAFSDDGSGGRRDSNLQRTGNDWIEVAFRTARAADPAAKLCYNDYNIENWTWAKTQGVYNMVRDFKQRGVPIDCVGFQSHFNSGSPYNSNFRTTLQNFAALGVDVAITELDIQGASSSTYAAVTNDCLAVSRCLGITVWGVRDTDSWRSGDTPLLFNGDGSKKAAYTAVLNALNGGSSTPPPSGGGQIKGVGSGRCLDVPNASTTDGTQVQLYDCHSATNQQWTYTDAGELRVYGDKCLDAAGTGNGTKVQIYSCWGGDNQKWRLNSDGSIVGVQSGLCLDAVGGGTANGTLIQLYSCSNGSNQRWTRT | soluble

Reference: the DeepSol protein solubility set
